Measured values published in the supplement of paper PMC9170038.

System: MS2 coat protein
Assay: apparent KD of MS2 coat protein; designed switch direction (-1 OFF switch, 1 ON switch): -1; higher = weaker reporter binding
In short: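 Normalised cluster fluorescence was curve-fitted, and each design's median over clusters is its apparent KD. Before this, SNAP-549-labelled MS2 coat protein was titrated from 0.7 or 1.5 nM, doubling to 3 µM, over RNA switches transcribed on Illumina chips by stalled E. coli RNA polymerase. Titrations had no input, 200 uM small-molecule ligand, or an oligonucleotide input, and steps lasted 0.8–1.5 h (lowest) to 10–20 min (highest).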

[1] = input ligand: microRNA oligo, concentration not stated
[2] = Eterna round: R95, input ligand: microRNA oligo, concentration not stated
[3] = Eterna round: R95, input ligand: FMN 200 uM
[4] = Eterna round: R95, input ligand: none

| Sequence | apparent KD of MS2 coat protein (input ligand: FMN 200 uM) | apparent KD of MS2 coat protein [1] | apparent KD of MS2 coat protein (input ligand: none) | apparent KD of MS2 coat protein [2] | apparent KD of MS2 coat protein [3] | apparent KD of MS2 coat protein [4] |
| --- | --- | --- | --- | --- | --- | --- |
| GCAGCUAAUCGAGGAUAUCAGCACGAUUAGUGCUGAGAAGGCGACAUGAGGAUCACCCAUGUGAUCAAUUAAUAUUAAUGCUGC [ENG1/11-A1] (Eterna round: R96, puzzle: Exclusion NG 1) | 0.774 µM | 0.295 µM | 0.505 µM |  |  |  |
| UUCGGCGGAGGAUAUACAGUUUUUUGUUGAAUCGGCGGAAAACAUGAGGAUCACCCAUGUAGAAGGUUGUUGAA [-19.8, -17.1 kcal, A 28%] (Eterna round: R97, puzzle: Exclusion 2) | 0.0642 µM |  | 0.0656 µM |  |  |  |
| GAUGCUCCGGUCAGGAUAUCAGGUGCAAGCACCGGUGAGAAGGGACAUGAGGAUCACCCAUGUAAAAUAAGACC [Aenxeza] (Eterna round: R97, puzzle: Brourd's mod of Exclusion 4) | 0.0407 µM |  | 0.024 µM |  |  |  |
| CAAGAUUACUGAGGAUAUCCUAGUUUAUUUCAGGGAGAAGGCGGACUCAACAUGAGGAUCACCCAUGUAAGACGGGUACUAGAG [Ex NG1 #16] (Eterna round: R96, puzzle: Exclusion NG 1) | 0.0947 µM | 0.0711 µM | 0.0784 µM |  |  |  |
| UCGGCGCGAGGAUAUGCGGUUGCUUGGUAGGGUCGUGGCGUACAUGAGGAUCACCCAUGUAGAAGGCGCGCCGC [Apr-15 SS2-32*] (puzzle: Exclusion 2) |  |  |  | 0.0155 µM |  |  |
| AGCGUGUGAGGAUAUCGAUAUUGGAAGUCUAGGUCUGAGCGCGAGAAGGCACAUGAGGAUCACCCAUGUAAGGG [Teceor] (Eterna round: R97, puzzle: Exclusion 4) | 0.516 µM |  | 0.375 µM |  |  |  |
| ACAUGAGGAUCACCCAUGUCCGUCUGGUCUGUCUCGGCUGUCGAGGAUAUAGCUCGGUAUCCGCGCUAGAAGGCGGGAGUCGGG [Aenatbe mod 95] (Eterna round: R96, puzzle: Exclusion NG 3) | 0.0361 µM | 0.0609 µM | 0.0619 µM |  |  |  |
| GCAAGCUUUUGCUCGUCUUACAUGAGGAUCACCCAUGUCGGGCCCGGCCGUCGCGGCCGGGCCCGCCGGGCGCCGGG [-41.9, -69.5 kcal, A 10%] (Eterna round: R97, puzzle: Sensor, turn-off variant 1) | 0.0535 µM |  | 0.0641 µM |  |  |  |
| GCUUAGGAAGGAUAUACAUGAGGAUCACCCAUGUUGACGCGGUAGGGCCCGGUAGCACGUAGAAGGUCUAUAGC [Eternabot (L2) Solution 46] (Eterna round: R97, puzzle: Exclusion 3) | 0.0285 µM |  | 0.0194 µM |  |  |  |
| AGUACUAACACGAGAGUGUUAGUACAAUAAGCUUGUGGAACAUGAGGAUCACCCAUGUCCUCAUAAGCUCGUCUUAU [Mat - Sensor v3 - Turn-off var 2 - D99] (puzzle: Sensor v3, turn-off variant 2) |  |  |  | 0.0703 µM | 0.0152 µM | 0.0134 µM |
| CAUACAGUAGUUAGGAUAUUGCAACACACACGGAACGAGAAGGGACAUGAGGAUCACCCAUGUAGACUGUAAAG [EX-4 Malc #6] (puzzle: Brourd's mod of Exclusion 4) |  |  |  | 0.0272 µM | 0.0207 µM | 0.0245 µM |
| UUCUUUACACGAGGAUAUCAUACAUGAGGAUCACCCAUGUGGCUGUGUCUGUUUUUAUGUAUUAUUGAGAAGGCGUUUUUCUUU [JR_ExcNG2_Sub075] (Eterna round: R96, puzzle: Exclusion NG 2) | 0.105 µM | 0.0283 µM | 0.033 µM |  |  |  |
